Publication PMC5295395, “Inhibition of PlexA1-mediated brain tumor growth and tumor-associated angiogenesis using a transmembrane domain targeting peptide” (Oncotarget, 2016)
Values belong to the substance of their own block, whether it stands above or below them.

Legend:
NRP1 or PlexA1 = details: ref Arpel et al., 2014, Cell Reports; cited from earlier work
Text: Such mutations have been previously shown to be sufficient to lose activity of NRP1 antagonist membrane domain targeting peptide (Roth et al., 2008 Mol Biol Cell).

NRP1/PlexA1 complexes = experiment: in situ proximity ligation assay (Duo-link), NRP1/PlexA1 complexes in U373MG cells; assay type: cell-based, human; details: specificity control, MTP-Neu at 10–6 M
Procedure: “Zip sequence” is the positive control of dimerization and “Empty” is the negative control of this bacterial system. (C, D) SPR assay (Biacore) to quantify MTP-PlexA1 interactions with PLexA1, NRP1 and VEGFR2 TMDs. (E) Proximity ligation assay showing that MTP-PlexA1 (10^−7 M) decreases the number of PLexA1-NRP1 interactions (green dots) in U373MG cells (scale bar = 20 μm).
Additional specificity controls were performed using a mutated version of MTP-PlexA1 (in which 3 glycines of the GxxxGxxxG motif were replaced by 3 valines or MTP-Neu, an anti-breast cancer peptide known to not interact with PlexA1) as described in Supplementary Figure S2. […] Similar results were obtained when cells were exposed to VEGF (39.4% NRP1 and 35.4% PlexA4, Figure 4B).
Supplementary Figure S2: Specificity controls were performed using a mutated version of MTP-PlexA1 […]
LVIVAVLIAYKRK). Such mutations have been previously shown to be sufficient to lose activity of NRP1 antagonist membrane domain targeting peptide (Roth et al., 2008 Mol Biol Cell). We also used MTP-Neu, a transmembrane domain targeting peptide known to […]
M, a concentration previously shown to produce maximal antagonist activity of the peptide. Additionally, we also repeated the in vitro angiogenic assay on matrigel using HUVEC cells. […]
to MTP-PlexA1. These experiments confirmed the specificity of MTP-PlexA1.
(1 picture or pasted object on this page, not shown here)

PlexA1 = experiment: morpholino-based PlexA1 knockdown in zebrafish, intersegmental vessels; assay type: in vivo; details: tg(kdrl:eGFP) zebrafish, 28 hours post fertilization, vs no injection or mismatch morpholino
Text: We observed PlexA1 positive blood vessels in the tissue array of GBM samples (Figure 5A). […] To address this possibility we first used a transgenic zebra-fish model tg(kdrl:eGFP) highlighting the endothelial cells. This allowed us to assess the angiogenic activities in vivo by analyzing formation of intersegmental vessels (ISVs) after morpholino-based knockdown of the target. […] (Scale bar: 40 μm). […] Representative images of control, Plexin-A1 mismatch and […]1 knockdown embryos (plxna1MO) are shown 28 hours post fertilization (28hpf). […] (E) Live-monitoring of VEGF-induced HUVEC cell migration assay using the […] system (transwell assay). (F) Microphotographs illustrating the expression of PlexA1 in blood vessels of the chick chorioallontoic membrane (upper left picture). Microphotographs (middle and lower left pictures) and camera lucida drawing (middle and lower right pictures) showing representative fields of observation after 24 h incubation with VEGF (100 ng/ml, +vehicle) or […]1 (10^-7 M). The number of VEGF-induced new blood vessels is shown in the graph. For knockdown of PlexA1 in the zebra fish we used morpholino oligonucleotides described by. MO ([NT]) was injected at the one-cell stage. Animals ([…] incubated at 28.5°C for 5 hours before treatment with 1-phenyl-2-thiourea (PTU) to prevent pigment formation. […]

[1] = target: Plexin-A1 (human (endogenous in U373MG and U118MG)) (UniProt Q9UIW2); experiment: proximity ligation; proximity ligation assay on tumor tissue sections of U118MG-Luc xenografts; mice treated with MTP-PlexA1 against control mice
Sequence of UniProt Q9UIW2 (Q9UIW2 27-1896): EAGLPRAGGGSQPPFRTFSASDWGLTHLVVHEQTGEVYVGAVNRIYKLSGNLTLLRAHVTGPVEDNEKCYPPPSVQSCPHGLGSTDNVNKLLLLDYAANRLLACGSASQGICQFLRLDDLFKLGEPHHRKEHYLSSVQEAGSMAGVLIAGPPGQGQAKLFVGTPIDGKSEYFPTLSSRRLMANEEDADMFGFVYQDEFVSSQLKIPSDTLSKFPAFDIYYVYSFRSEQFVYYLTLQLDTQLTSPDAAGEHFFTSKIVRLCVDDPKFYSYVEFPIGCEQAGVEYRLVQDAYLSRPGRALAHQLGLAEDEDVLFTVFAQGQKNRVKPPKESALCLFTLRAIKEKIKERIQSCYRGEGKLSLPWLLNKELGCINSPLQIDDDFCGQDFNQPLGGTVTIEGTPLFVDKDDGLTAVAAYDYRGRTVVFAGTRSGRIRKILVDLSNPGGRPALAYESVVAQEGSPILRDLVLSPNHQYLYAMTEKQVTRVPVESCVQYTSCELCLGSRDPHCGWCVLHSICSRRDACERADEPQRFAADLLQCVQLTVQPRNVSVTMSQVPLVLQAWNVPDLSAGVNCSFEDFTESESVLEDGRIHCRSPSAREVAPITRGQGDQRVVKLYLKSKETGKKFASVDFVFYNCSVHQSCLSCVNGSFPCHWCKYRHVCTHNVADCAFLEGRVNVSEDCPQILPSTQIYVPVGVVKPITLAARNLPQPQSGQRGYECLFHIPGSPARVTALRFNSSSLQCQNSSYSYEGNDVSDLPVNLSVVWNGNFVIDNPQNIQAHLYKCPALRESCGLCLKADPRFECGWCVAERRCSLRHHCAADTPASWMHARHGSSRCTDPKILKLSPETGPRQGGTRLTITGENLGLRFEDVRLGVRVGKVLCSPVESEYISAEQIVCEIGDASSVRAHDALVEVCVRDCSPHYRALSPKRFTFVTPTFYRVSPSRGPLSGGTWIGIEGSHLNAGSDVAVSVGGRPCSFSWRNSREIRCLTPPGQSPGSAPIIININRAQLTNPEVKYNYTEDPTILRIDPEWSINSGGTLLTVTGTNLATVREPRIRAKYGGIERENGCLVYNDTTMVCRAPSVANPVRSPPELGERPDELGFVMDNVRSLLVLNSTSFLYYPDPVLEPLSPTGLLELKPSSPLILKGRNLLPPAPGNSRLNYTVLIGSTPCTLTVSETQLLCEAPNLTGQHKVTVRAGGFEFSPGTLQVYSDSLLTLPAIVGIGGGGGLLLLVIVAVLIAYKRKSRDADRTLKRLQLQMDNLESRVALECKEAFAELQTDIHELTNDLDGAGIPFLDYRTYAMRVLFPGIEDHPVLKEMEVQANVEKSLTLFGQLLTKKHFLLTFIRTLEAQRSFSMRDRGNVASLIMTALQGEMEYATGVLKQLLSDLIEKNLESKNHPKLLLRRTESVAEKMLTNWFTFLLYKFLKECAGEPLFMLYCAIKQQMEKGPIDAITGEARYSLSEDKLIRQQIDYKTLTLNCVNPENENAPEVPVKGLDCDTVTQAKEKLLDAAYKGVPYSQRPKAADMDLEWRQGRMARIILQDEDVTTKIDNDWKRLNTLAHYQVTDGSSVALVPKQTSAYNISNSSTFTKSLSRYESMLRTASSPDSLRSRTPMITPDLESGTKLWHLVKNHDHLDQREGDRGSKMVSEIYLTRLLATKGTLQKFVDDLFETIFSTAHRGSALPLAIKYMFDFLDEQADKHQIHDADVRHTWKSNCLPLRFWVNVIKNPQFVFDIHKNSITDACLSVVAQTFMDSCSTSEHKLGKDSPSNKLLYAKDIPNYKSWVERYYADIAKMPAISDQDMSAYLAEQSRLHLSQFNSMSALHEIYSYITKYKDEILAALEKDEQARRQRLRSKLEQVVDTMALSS

[2] = target: Plexin-A1 (human (endogenous in U373MG and U118MG)) (UniProt Q9UIW2); experiment: proximity ligation; in situ proximity ligation assay (Duo-link) on U373MG cells; MTP-PlexA1 (10^-7 M) added, NRP1/PlexA1 complexes counted against vehicle
[3] = target: Plexin-A1 (human (endogenous in U373MG and U118MG)) (UniProt Q9UIW2); experiment: co-IP; immunoprecipitation of PlexA1 from U373MG cells stimulated with Sema3A (100 ng/ml) or VEGF (100 ng/ml) with MTP-PlexA1 (10^-7 M); amount of co-precipitated NRP1 and PlexA4 against no peptide

Substance: TFIIATVEGVLLFLILVVVVGILIKRR [MTP-Neu, reference compound]
interaction with NRP1 or PlexA1 (NRP1 or PlexA1): not interact with NRP1 or PlexA1 | disruption of NRP1/PlexA1 dimers (NRP1/PlexA1 complexes): unrelated MTP-Neu peptide

Substance: 5′-GCCACATATCTGCACTGGTCCTTGA-3′ (all phosphorodiamidate morpholino (PMO)) [morpholino sequence against PlexA1, morpholino oligonucleotide for knockdown of PlexA1 in the zebra fish]
abnormal angiogenic sprouts in intersegmental vessels (PlexA1): significant number of abnormal angiogenic sprouts

percent change of PlexA1-NRP1 interactions (proximity ligation, tumor sections) [1]: -48.5% | percent reduction of NRP1/PlexA1 complexes (proximity ligation, U373MG) [2]: 29.4% | percent reduction of NRP1 co-immunoprecipitated with PlexA1 (VEGF) [3]: 39.4% | percent reduction of PlexA4 co-immunoprecipitated with PlexA1 (VEGF) [3]: 35.4%
Substance: MTP-PlexA1, synthetic transmembrane peptide mimicking the TMD of PlexA1
